From patent publication US20090042785A1

Assays:
[1] = target: human CTLA-4-Fc (Chimerigen) (human) (UniProt P16410); test: FACS competition: inhibition of 2.5 nM hCTLA-4 Fc binding to Raji cells (B7.1, B7.2)
[2] = target: human CTLA-4-Fc (Chimerigen) (human) (UniProt P16410); test: competition FACS: HuCTLA4-Ig 5 ug/ml (as printed on the axis) pre-incubated with the antagonist, then staining of P815 cells transfected with human B7.2; blocked ligand B7.2
[3] = target: human CTLA-4-Fc (Chimerigen) (human) (UniProt P16410); test: competition FACS: 2.5 nM human CTLA-4 Fc pre-incubated with the antagonist, then staining of Raji cells; % inhibition of CTLA-4 Fc binding; blocked ligands B7.1 and B7.2
[4] = target: human CTLA-4 on the cell surface (transfected CHO and A431 cells; CD152-expressing cells of human tonsil) (human) (UniProt P16410); test: indirect immunoperoxidase staining of cryosections; tonsil HT664, mononuclear cells, follicular>>interfollicular (membrane); 5 µg/mL [Fig.20 continued, no label on the sheet]
[5] = target: human CTLA-4 on the cell surface (transfected CHO and A431 cells; CD152-expressing cells of human tonsil) (human) (UniProt P16410); test: indirect immunoperoxidase staining of cryosections; spleen HT337, mononuclear cells, white pulp (membrane, frequent); 5 µg/mL [Fig.20 continued, no label on the sheet]
[6] = target: human CTLA-4 on the cell surface (transfected CHO and A431 cells; CD152-expressing cells of human tonsil) (human) (UniProt P16410); test: indirect immunoperoxidase staining of cryosections; CD152-expressing cells in human tonsil (positive control tissue), source HT343; 5 µg/mL; scale ± to 4+ (4+ = intense)
[7] = target: human CTLA-4 on the cell surface (transfected CHO and A431 cells; CD152-expressing cells of human tonsil) (human) (UniProt P16410); test: indirect immunoperoxidase staining of cryosections; CD152-expressing cells in human tonsil (positive control tissue), source HT662; 5 µg/mL; scale ± to 4+ (4+ = intense)
[8] = target: human CTLA-4 on the cell surface (transfected CHO and A431 cells; CD152-expressing cells of human tonsil) (human) (UniProt P16410); test: indirect immunoperoxidase staining of cryosections; kidney HT268, mononuclear cells, interstitial, inflammatory (membrane, rare); 5 µg/mL [Fig.20 continued, no label on the sheet]
[9] = target: mouse CTLA-4 Fc (Chimerigen) (mouse) (UniProt P09793); test: FACS competition: inhibition of 2.5 nM mCTLA-4 Fc binding to Raji cells (B7.1, B7.2)

Row | IC50 [1] | IC50 (read off the curve) [2] | IC50 (read off the curve) [3] | staining intensity grade [4] | staining intensity grade [5] | staining intensity grade [6] | staining intensity grade [7] | staining intensity grade [8] | IC50 [9] | Substance
1 | 1.9 nM | 50 nM |  |  |  |  |  |  |  | anti-human CTLA-4 monoclonal antibody 14D3 (eBioscience)
2 | 2.1 nM |  | 2 nM | 4 + | 4 + | 4 + | 4 + | 4 + |  | anti-human CTLA-4 monoclonal antibody BNI3 (Becton Dickinson)
3 |  |  |  |  |  |  |  |  | 4.1 nM | anti-mouse CTLA-4 monoclonal antibody 4F10 (hybridoma UC10-4F10-11, ATCC #HB-304)
